Assay results as given in the supplement of paper PMC7125110.
± gives the standard error. This sample holds only a part of the variants without activity.

B1: glmS ribozyme (parent)
chain: AUAAAAGCGCCAGAACUACAGAAAUGUAGUUGACGAGGAGGAGGUUUAUCGAAUUUUCGGCGGAUGCCUCCAAA

Variants of: B1
Test: self-cleavage kobs at 640 uM GlcN6P; higher = faster cleavage; RNA array
Details: with glucosamine-6-phosphate
How it was run: (§1)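 Weighted Michaelis–Menten fits across concentrations supplied kcat and KM, based on kobs from one- or two-exponential decay fits to normalised per-tile medians. The data came from barcoded ribozyme variants transcribed in situ by E. coli RNA polymerase on sequenced MiSeq chips and tracked at 37 °C by a hybridised Cy3 probe. Glucosamine-6-phosphate (40 μM to 10 mM) in HEPES/KCl/Mg(OAc)2 buffer was flowed in.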

| Variant | self-cleavage kobs at 640 uM GlcN6P [s⁻¹] |
| --- | --- |
| AUAAAAGCGCCAGAACUACAGAAAUGUAGUUGACGAUGAGGAGGUUUAUCGAAUUUUCGGCUGAUGCCUCCAAA | < 1e-05 |
| AUAAAAGCGCCAGAACUACAGAAAUGUAGUUGUCGAGGAGUAGGUUUCUCGAAUUUUCGGCGGAUGCUUCCAAA | < 1e-05 |
| AUAAAAUGGCCAGAACUACAGAAAUGUAGUUGACGAGCAGGAGGUUUAUCGAAUUUUCGGCGGAUGCCUCCAAA | < 1e-05 |
| AUAAAAGCGCGAGAACUACAGAAAUGUAGUUGACGAGGAGGUGGUUUAUCGAAUUUUCUGCGGAUGCCUCCAAA | < 1e-05 |
| AUAAAAGCGCCAGAACUACAGAAAUGUAGUUGACGAGGAGGAGUUUUAUCGAAUUUUCGGCGGAUGUCUCUAAA | 0.00022 ± 6.3e-05 |
| AUAAAAGCGCCAGAGCUACAGAAAUGUAGUUGGCGAGGAGGAGGUUUAUCGAUUUUUCGGCGGAUGCCUCCAAA | < 1e-05 |
| AUAAAAUCGCCAGAACUACAGAAAUGUAGUUGACGAGGAUGAGGUUUAUGGAAUUUUCGGCGGAUGCCUCCAAA | < 1e-05 |
| AUAAAAGCGCCAGAACUACAGAAAUGUAGUUUACGAGGAGGAGGUUUAUCGAAUUAUCGGCGGAUGCGUCCAAA | 0.000222 ± 9e-05 |
| AUAAAAGCGCCAGAACUACAGAAAUGUAGUUGACGAGGAGGAGGUUUAUCGAAUUUUUGGGGGAUGUCUCCAAA | 7.86e-05 ± 3.1e-05 |
| AUAAAAGCGCCAGAACUACAGAAAUGUAGUUGAGCAGGAGGAGGUUUAUCGAAUUUUCGCCGGAUGCGUCCAAA | 6.81e-05 ± 3.1e-05 |
| AUAAAAGCGCCAGAGCUACAGAAAUGUAGUUGAAGAGGAGGAGGUUUAUCGAAUUUUCGGCGGAUGCCUCUAAA | < 1e-05 |
| AUAAAAGCGCCAGAACUACAGAAAUGUAGCUGACGAGGAGGAGGUUUAUCAAAUUUUCGGCGGAGGCCUCCAAA | < 1e-05 |
| AUAAAAGCGCCAGAACUACAGAAAUGUAGUUGACGAGGAGGAGGUUUAUCGAAUUUUCGGCGGAGGCCCCUAAA | 6.22e-05 ± 1.6e-05 |
| AUAAAAGCGCUAGAACUACAGAAAUGUAGUAGACGAGGAGGAGGUUUAUGGAAUUUUCGGCGGAUGCCUCCAAA | 8.34e-05 ± 2.1e-05 |
| AUAAAAGUGCCAGAACUACAGAAAUGUAGUUGCCGAGGACGAGGUUUAUCGAAUUUUCGGCAGAUGCCUUCAAA | < 1e-05 |
| AUAAAAGCGCCAGAACUACAGAAAUGUAGUUGACGAGGAGAAGGUUUAUCGAAUUUUAGGCGGAUGCCACCAAA | < 1e-05 |
| AUAAAAGCGCCAGAACUACAGAAAUGUAGUGGACCAGGAGGAGGUUUAUCGAAUUUUCGGCGGAUGCGUCCAAA | < 1e-05 |
| AUAAAAGCGCCAGAAUUACAGAAAUGUAGUUGACGAGGGGGAGGUUUAUCGAAUUUUAGGCGGAUGCCUCCAAA | 9.4e-05 ± 1.7e-05 |
| AUAAAAGCGUCAGAACUACAGAAAUGUAGUUGACGACGAGGAGGUUUAUCGAAUUUUCGACGGAUGCCUCCAAA | < 1e-05 |
| AUAAAAGCGCCAGAACUACAGAAAUGUAGUUGACGAGGAGGAGGUUUAUAGAAUUUUCGGCGGAUGUCUGCAAA | 6.04e-05 ± 2.3e-05 |
| AUAAAAGCGCCAGAACUACAGAAAUGUAGUUGACGAGGAGGAAGUCUAUCGAAAUAUCGGCGGAUGCCCCCAAA | < 1e-05 |
| AUAAAAGCGCCCGAACUACAGAAAUGUAGUUGACGAGGAGGAGGUAUAUCUAAGUUUCGAAGGAUGCCUACAAA | < 1e-05 |
| AUAAAAGCGCCAGAACUACAGAAAUGUAGUUGGCGUGCAGGAGGUUUAUCGAAUUUUCGGCGGAUGCCUCCAAA | < 1e-05 |
| AUAAAAGCGCCAGAACUACAGAAAUGUAGUUGACGAUGAGGCGGUUUAUAGAAUUUUCGGCGGUUGCCUCCAAA | < 1e-05 |
| AUAAAAGCGCAAGAACUACAGAAAUGUAGUUCACGAGGAGUAGGUUUAUCGUAUUUUCGGCGGAUGCCUCCAAA | < 1e-05 |
| AUAAAAGCGCCAGAAAUACAGAAAUGUAGUUGAGGAGGAGGAGGUUUAUCGAAUUUUCGGCGGAUGCGUCCAAA | 0.000145 ± 4.7e-05 |

Variants of: B1
Test: self-cleavage kobs at 2500 uM GlcN6P; higher = faster cleavage; RNA array
Details: with glucosamine-6-phosphate
How it was run: as §1

| Variant | self-cleavage kobs at 2500 uM GlcN6P [s⁻¹] |
| --- | --- |
| AUAAAAGCGCGAGAACUACAGAAAUGUAGUUGACGAGGAGGUGGUUUAUCGAAUUUUCUGCGGAUGCCUCCAAA | < 1e-05 |
| AUAAAAGCGCCAGAACUACAGAAAUGUAGUUGACGAGGAGGAGUUUUAUCGAAUUUUCGGCGGAUGUCUCUAAA | 0.00069 ± 0.00025 |
| AUAAAAUCGCCAGAACUACAGAAAUGUAGUUGACGAGGAUGAGGUUUAUGGAAUUUUCGGCGGAUGCCUCCAAA | < 1e-05 |
| AUAAAAGCGCCAGAGCUACAGAAAUGUAGUUGAAGAGGAGGAGGUUUAUCGAAUUUUCGGCGGAUGCCUCUAAA | < 1e-05 |
| AUAAAAGCGCCAGAACUACAGAAAUGUAGCUGACGAGGAGGAGGUUUAUCAAAUUUUCGGCGGAGGCCUCCAAA | < 1e-05 |
| AUAAAAGCGCCAGAACUACAGAAAUGUAGUUGACGAGGAGGAGGUUUAUCGAAUUUUCGGCGGAGGCCCCUAAA | 6.97e-05 ± 2.6e-05 |
| AUAAAAGCGCUAGAACUACAGAAAUGUAGUAGACGAGGAGGAGGUUUAUGGAAUUUUCGGCGGAUGCCUCCAAA | 9.55e-05 ± 3.2e-05 |
| AUAAAAGCGCCAGAACUACAGAAAUGUAGUUGACGAGGAGAAGGUUUAUCGAAUUUUAGGCGGAUGCCACCAAA | < 1e-05 |
| AUAAAAGCGCCAGAACUACAGAAAUGUAGUGGACCAGGAGGAGGUUUAUCGAAUUUUCGGCGGAUGCGUCCAAA | < 1e-05 |
| AUAAAAGCGCCAGAAUUACAGAAAUGUAGUUGACGAGGGGGAGGUUUAUCGAAUUUUAGGCGGAUGCCUCCAAA | 0.000347 ± 4.1e-05 |
| AUAAAAGCGCCAGAAAUACAGAAAUGUAGUUGAGGAGGAGGAGGUUUAUCGAAUUUUCGGCGGAUGCGUCCAAA | 0.000193 ± 6.5e-05 |

Variants of: B1
Test: self-cleavage kobs at 10000 uM GlcN6P; higher = faster cleavage; RNA array
Details: with glucosamine-6-phosphate
How it was run: as §1

| Variant | self-cleavage kobs at 10000 uM GlcN6P [s⁻¹] |
| --- | --- |
| AUAAAAGCGCCAGAAAUACAGAAAUGUAGUUGAGGAGGAGGAGGUUUAUCGAAUUUUCGGCGGAUGCGUCCAAA | 4.24e-05 ± 2e-05 |
